Measured values as given in US20060259987A1 (UNIVERSITY OF UTAH RESEARCH FOUNDATION, published 2006).
Substitutions are numbered along the chain they refer to. Each block holds one binder with its values, some of them ahead of it.

Columns and labels:
thrombin [1] = target: T1, thrombin (human, UniProt P00734 328-622); assay: cell-based or functional assay
factor Xa [2] = target: T2, factor Xa (human, UniProt P00742 41-179; P00742 235-488, limits assumed); assay: cell-based or functional assay
thrombin [3] = target: T1, thrombin; assay: Kapp IIa/hep relative to plasma.at3
factor Xa [4] = target: T2, factor Xa; assay: Kapp fXa/hep relative to plasma.at3
thrombin [5] = target: T1, thrombin; assay: Kapp IIa/prog relative to plasma.at3
factor Xa [6] = target: T2, factor Xa; assay: Kapp fXa/prog relative to plasma.at3
thrombin [7] = target: T1, thrombin; assay: thrombin +hep: pseudo-first-order loss of chromogenic activity with heparin
Protocol: (§1) Polybrene was added with the chromogenic substrate to quench the heparin dependent reaction. The observed pseudo-first-order rate constants were calculated for each heparin (1 nM-5 nM) concentration from the slope of the log of residual proteinase activity vs. time. This was plotted against the heparin concentration to calculate the second-order rate constant for the inhibition by the heparin-ATIII complex, (Kₕₑₚ) from the equation Kobs=Kₕₑₚ[H]ₒ([AT]ₒ/[AT]ₒ+Kd)+Kuncat[AT]ₒ

factor Xa [8] = target: T2, factor Xa; assay: factor Xa +hep: pseudo-first-order loss of chromogenic activity with heparin
Protocol: as §1

thrombin [9] = target: T1, thrombin; assay: thrombin prog: pseudo-first-order loss of chromogenic activity, no heparin, 25 C
Protocol: (§2) Polybrene was added with the chromogenic substrate to quench the heparin dependent reaction. […] This was plotted against the heparin concentration to calculate the second-order rate constant for the inhibition by the heparin-ATIII complex, (Kₕₑₚ) from the equation Kobs=Kₕₑₚ[H]ₒ([AT]ₒ/[AT]ₒ+Kd)+Kuncat[AT]ₒ

factor Xa [10] = target: T2, factor Xa; assay: factor Xa prog: pseudo-first-order loss of chromogenic activity, no heparin, 25 C
Protocol: as §2

T2 sequence (P00742 41-179 limits assumed, chain 1 of 2): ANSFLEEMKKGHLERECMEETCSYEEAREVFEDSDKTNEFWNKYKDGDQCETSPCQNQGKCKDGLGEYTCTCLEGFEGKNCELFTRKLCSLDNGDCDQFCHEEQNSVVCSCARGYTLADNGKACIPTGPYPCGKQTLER
T2 sequence (P00742 235-488 limits assumed, chain 2 of 2): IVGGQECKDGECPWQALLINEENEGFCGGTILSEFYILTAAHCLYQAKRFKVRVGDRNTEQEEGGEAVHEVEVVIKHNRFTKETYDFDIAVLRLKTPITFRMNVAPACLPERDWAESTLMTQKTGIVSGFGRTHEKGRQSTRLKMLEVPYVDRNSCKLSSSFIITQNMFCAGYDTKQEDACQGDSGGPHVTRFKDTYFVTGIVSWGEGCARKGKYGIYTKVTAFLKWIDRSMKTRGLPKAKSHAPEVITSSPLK

- IC50 IIa/UFH; HCA #2 (thrombin [1]): 75 nM
- IC50 IIa/UFH; HCA #3 (thrombin [1]): 43 nM
- IC50 IIa/UFH; HCA #4 (thrombin [1]): 55 nM
- rsd. IIa catG; CA #12; stg1 conc 200 (thrombin [1]): 1%
- rsd. IIa catG; CA #14; stg1 conc 200 (thrombin [1]): 1%
- rsd. IIa catG; CA #15; stg1 conc 200 (thrombin [1]): 1%
- rsd. IIa hne; CA #12; stg1 conc 200 (thrombin [1]): 2%
- rsd. IIa hne; CA #14; stg1 conc 200 (thrombin [1]): 3%
- rsd. IIa hne; CA #15; stg1 conc 200 (thrombin [1]): 4%
- rsd. IIa no add; CA #12; stg1 conc 200 (thrombin [1]): 1%
- rsd. IIa no add; CA #14; stg1 conc 200 (thrombin [1]): 7%
- rsd. IIa no add; CA #15; stg1 conc 200 (thrombin [1]): -1%
- IC50 fXa/UFH; HCA #2 (factor Xa [2]): 65 nM
- IC50 fXa/UFH; HCA #3 (factor Xa [2]): 46 nM
- IC50 fXa/UFH; HCA #4 (factor Xa [2]): 40 nM
- rsd. Xa catG; CA #12; stg1 conc 200 (factor Xa [2]): 1%
- rsd. Xa catG; CA #14; stg1 conc 200 (factor Xa [2]): 2%
- rsd. Xa catG; CA #15; stg1 conc 200 (factor Xa [2]): 0%
- rsd. Xa hne; CA #12; stg1 conc 200 (factor Xa [2]): 1%
- rsd. Xa hne; CA #14; stg1 conc 200 (factor Xa [2]): 4%
- rsd. Xa hne; CA #15; stg1 conc 200 (factor Xa [2]): 1%
- rsd. Xa no add; CA #12; stg1 conc 200 (factor Xa [2]): 1%
- rsd. Xa no add; CA #14; stg1 conc 200 (factor Xa [2]): 2%
- rsd. Xa no add; CA #15; stg1 conc 200 (factor Xa [2]): 1%
- Kapp as a percentage of the plasma ATIII value (thrombin [3]): 36%
- Kapp as a percentage of the plasma ATIII value (factor Xa [4]): 85%
- Kapp as a percentage of the plasma ATIII value (thrombin [5]): 104%
- Kapp as a percentage of the plasma ATIII value (factor Xa [6]): 1150%
- kapp (apparent second-order inhibition rate constant) (thrombin [7]): 2.11e+06 M⁻¹ s⁻¹
- kapp (apparent second-order inhibition rate constant) (factor Xa [8]): 489000 M⁻¹ s⁻¹
- kapp (apparent second-order inhibition rate constant) (thrombin [9]): 7310 M⁻¹ s⁻¹
- kapp (apparent second-order inhibition rate constant) (factor Xa [10]): 24100 M⁻¹ s⁻¹
B1: LEAI.480 (other)
chain: SPVDICTAKPRDIPMNPMCIYRSPEKKATEDEGSEQKIPEATNRRVWELSKANSRFATTFYQHLADSKNDNDNIFLSPLSISTAFAMTKLGACNDTLQQLMEVFKFDTISEKTSDQIHFFFAKLNCRLYRKANKASKLVSANRLFGDKSLTFNETYQDISELVYGAKLQPLDFKENAEQSRAAINKWVSNKTEGRITDVIPSEAINELTVLVLVNTIYFKGLWKSKFSPENTRKELFYKADGESCSASMMYQEGKFRYRRVAEGTQVLELPFKGDDITMVLILPKPEKSLAKVEKELTPEVLQEWLDELEEMMLVVHMPRFRIEDGFSLKEQLQDMGLVDLFSPEKSKLPGIVAEGRDDLYVSDAFHKAFLEVNEEGSEAAASTALEAYGRSLNPNRVTFKANRPFLVFIREVPLNTIIFMGRVANPCVK

- IC50 IIa/UFH; HCA #4 (thrombin [1]): 25 nM
- rsd. IIa catG; CA #14; stg1 conc 200 (thrombin [1]): 1%
- rsd. IIa hne; CA #14; stg1 conc 200 (thrombin [1]): 4%
- rsd. IIa no add; CA #14; stg1 conc 200 (thrombin [1]): 1%
- IC50 fXa/UFH; HCA #4 (factor Xa [2]): 22 nM
- rsd. Xa catG; CA #14; stg1 conc 200 (factor Xa [2]): 1%
- rsd. Xa hne; CA #14; stg1 conc 200 (factor Xa [2]): 2%
- rsd. Xa no add; CA #14; stg1 conc 200 (factor Xa [2]): 0%
- Kapp as a percentage of the plasma ATIII value (thrombin [3]): 91%
- Kapp as a percentage of the plasma ATIII value (factor Xa [4]): 145%
- Kapp as a percentage of the plasma ATIII value (thrombin [5]): 41%
- Kapp as a percentage of the plasma ATIII value (factor Xa [6]): 256%
- kapp (apparent second-order inhibition rate constant) (thrombin [7]): 5.37e+06 M⁻¹ s⁻¹
- kapp (apparent second-order inhibition rate constant) (factor Xa [8]): 831000 M⁻¹ s⁻¹
- kapp (apparent second-order inhibition rate constant) (thrombin [9]): 2920 M⁻¹ s⁻¹
- kapp (apparent second-order inhibition rate constant) (factor Xa [10]): 5360 M⁻¹ s⁻¹
B2: LEAI.482 (other)
chain: B1 chain with Y389H
